The supplement of paper PMC10724198
± gives the standard deviation of the averaged measurements.

Test system: Saccharomyces cerevisiae
Assay: protein stability index of tFT-peptide fusion (C-terminal peptide) (PSI (0-1 scale)); higher = more stable (slower turnover)
Conditions: genetic background: wild type; temperature: 30 C
Experimental: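 Multiplexed protein stability (MPS) profiling in S. cerevisiae. Random 12-aa peptides (tFT-X12 library) are fused to the C-terminus of a sfGFP-mCherry tandem fluorescent timer, after mCherry and a GGGS linker. Cells are FACS-sorted into 8 mCherry/sfGFP bins and deep-sequenced. The protein stability index (PSI) is the read-weighted bin average, scaled from 0 (unstable) to 1 (stable). Only peptides with >10 reads are reported; cells were grown at 30 °C in SC-His with glucose.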
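Further: PSI is a weighted mean of sequencing reads over stability bins, variants kept only with over 10 reads, mCherry proximal and sfGFP distal, peptide attached via GGGS linker.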

Sequence	protein stability index
FVFAYLPSYEAM	0.729 ± 0.023
FVGAEWLLFYFS	0.677 ± 0.069
FVPPGTTSPNTT	0.731 ± 0.059
FVPRFPGTTINS	0.681 ± 0.049
FVSLVGGFVGTV	0.646 ± 0.037
FVSPVPPRRVGA	0.704 ± 0.037
FWGCCGGVGPRG	0.709 ± 0.0077
FWHERVSSTVKR	0.731 ± 0.025
FWKSVMRYYFKR	0.669 ± 0.027
FWPPPATSAAPC	0.79 ± 0.011
FYFLFVFICLRV	0.6642 ± 0.0062
FYIQVFTPLGGS	0.639 ± 0.0097
FYLRRNILGQDC	0.695 ± 0.0096
FYPLPSYFAYPI	0.663 ± 0.022
FYSLFLPRPFLS	0.579 ± 0.024
FYVTRIGPLDMS	0.801 ± 0.023
GAAGASCDCTGG	0.695 ± 0.07
GACIRLLPSFGY	0.6434 ± 0.0041
GACWRDSHSGGD	0.683 ± 0.023
GAEKGSVPGGDK	0.654 ± 0.05
GAEQSTDEFIRG	0.7058 ± 0.0012
GAGAAVHRAAPG	0.672 ± 0.029
GAGFCSGLRGAG	0.689 ± 0.088
GAGGVGGTSGGK	0.675 ± 0.084
GAGLWGGRGRRW	0.6489 ± 0.0063
GAGRAVRAFCVL	0.651 ± 0.02

Sequence	protein stability index
GAGRGKEREYRP	0.61356 ± 0.00019
GAGVLTLDNRRV	0.674 ± 0.019
GAKAARTTITSG	0.653 ± 0.026
GAKSENSLTTVQ	0.673 ± 0.013
GALANPLGHSHL	0.792 ± 0.11
GALGCHPGLPSP	0.714 ± 0.025
GALIGNDGHVSG	0.679 ± 0.027
GANLVTGKLTDG	0.693 ± 0.036
GAQSAVLQNPPA	0.6238 ± 0.0042
GARERRRRRRRP	0.713 ± 0.025
GARGGGRSRGTR	0.779 ± 0.091
GARRVVFSSVLQ	0.774 ± 0.13
GASCRDCVTRGS	0.745 ± 0.042
GASGGGQSSFGE	0.669 ± 0.013
GASVWGRGTRKI	0.6902 ± 0.0059
GATGGACGGWAG	0.67249 ± 0.00044
GATRCQTYPAGA	0.686 ± 0.04
GAVTNHAMASRP	0.725 ± 0.035
GAVVLSRFRCLP	0.639 ± 0.035
GAWASLPGLISP	0.729 ± 0.058
GAWGFVWLGVGC	0.658 ± 0.031
GAWWRMEQAFGV	0.757 ± 0.034
GCADNNRLGNVV	0.66 ± 0.011
GCAWGVKYEVIL	0.637 ± 0.05
GCDELGGRRFGR	0.7207 ± 0.0051
GCFDLNPDLFQG	0.688 ± 0.022

Sequence	protein stability index
GCFLIANMCLLG	0.665 ± 0.0035
GCLFSVLQSPSV	0.721 ± 0.02
GCLSPSTPLWFP	0.71454 ± 0.00037
GCLSRLCKGKVM	0.599 ± 0.033
GCRCSSGLGGFW	0.649 ± 0.11
GCVPGVGRDVVV	0.719 ± 0.019
GCWHFWQFFCHY	0.678 ± 0.024
GDHGSYAGPALL	0.673 ± 0.047
GDITEVDISKHI	0.75 ± 0.051
GDLGPADRQPAG	0.639 ± 0.027
GDLYWLRNAMSL	0.731 ± 0.012
GDSPSGKPAERT	0.661 ± 0.065
GDTQESSHIRIY	0.669 ± 0.051
GEAGICAGTAGG	0.693 ± 0.041
GEALSFIFVSPP	0.722 ± 0.033
GEAVAGRRQESP	0.695 ± 0.073
GEDFRVLVFVRL	0.556 ± 0.0099
GEFARSTRLAWV	0.682 ± 0.027
GEFISRSSRIEI	0.64 ± 0.042
GEGGGLRARQKP	0.673 ± 0.057
GEGHGGMLDVVM	0.686 ± 0.066
GELGGRAWVERG	0.683 ± 0.044
GELGGRSWVERG	0.648 ± 0.099
GELPGLFRCCLM	0.492 ± 0.072
GENLGGDVFNIG	0.73 ± 0.0031
GENPEPRHGRGN	0.698 ± 0.022

Sequence	protein stability index
GEQGAPLSIRYS	0.622 ± 0.021
GEQGVLARSDRI	0.589 ± 0.025
GEQSYGGHSVQT	0.642 ± 0.054
GERSGVSIRHEG	0.726 ± 0.016
GESIIQTCLNSI	0.845 ± 0.017
GESLSLVRIWRK	0.625 ± 0.13
GESRPPLASPHP	0.708 ± 0.0087
GETGGACGVWAG	0.685 ± 0.066
GETQAAGAKYLG	0.724 ± 0.019
GEYEHHKNKKRR	0.7 ± 0.075
GFALRESWFIFV	0.644 ± 0.018
GFAVGDQFIVPL	0.687 ± 0.048
GFCLIVGVVPAL	0.5179 ± 0.0024
GFHSVVMTFLRY	0.63 ± 0.017
GFILTVAPNLEH	0.648 ± 0.031
GFKMSMGCEQSS	0.722 ± 0.076
GFLCARGAHSMT	0.704 ± 0.013
GFLCDTVRLGCA	0.702 ± 0.058
GFLCLISSLGFM	0.687 ± 0.051
GFLSYWYISFPF	0.641 ± 0.014
GFPRSPALCSQP	0.689 ± 0.017
GFRDGVASLFVR	0.757 ± 0.026
GFRWGYIGGWRW	0.741 ± 0.01
GFSFSSFLRGLF	0.625 ± 0.017
GFTAERWRVKGR	0.674 ± 0.058
GFVAGGVCSRPL	0.715 ± 0.076

Sequence	protein stability index
GGAAWRRGVGGV	0.66 ± 0.025
GGAGAGHDPRRN	0.705 ± 0.019
GGAGGRRRIGGG	0.622 ± 0.048
GGARGEDRRAYV	0.668 ± 0.054
GGCCLWVGFQGG	0.703 ± 0.012
GGCGGGCGACVV	0.701 ± 0.025
GGCGGRGGVVVR	0.687 ± 0.02
GGCVCGPRVLGV	0.67 ± 0.031
GGCVGVLGGWGL	0.694 ± 0.0083
GGCVVKVRAQGP	0.636 ± 0.01
GGEGPKGDRGRA	0.649 ± 0.018
GGEVFGGRCSAV	0.734 ± 0.12
GGFGSCVGHVLG	0.735 ± 0.077
GGFRWLGGSAPA	0.727 ± 0.072
GGFVISGDVTVG	0.688 ± 0.038
GGFVVGGGGWLG	0.733 ± 0.033
GGGAGGRQGCGG	0.771 ± 0.027
GGGAGKGPQTRG	0.676 ± 0.062
GGGAGVRKWRKG	0.703 ± 0.058
GGGAGWGWGGRM	0.673 ± 0.017
GGGAPADSGPGG	0.628 ± 0.036
GGGARCGLGGRM	0.7 ± 0.053
GGGDRDGGTASG	0.698 ± 0.073
GGGFLGGTVAAV	0.7 ± 0.032
GGGGAGGGGGRV	0.676 ± 0.038
GGGGAGGWGAVG	0.67 ± 0.036

Sequence	protein stability index
GGGGFQVAVGCR	0.714
GGGGGGGAWKGV	0.69 ± 0.02
GGGGGGGGGAGG	0.674 ± 0.023
GGGGGGPGGVLK	0.706 ± 0.092
GGGGGGRAGVWG	0.687 ± 0.028
GGGGGGSRVWSA	0.698 ± 0.083
GGGGGGVEPCFV	0.668 ± 0.041
GGGGGKAGSHLG	0.632 ± 0.01
GGGGGRAQEVQG	0.717 ± 0.059
GGGGGRAYSWWV	0.699 ± 0.014
GGGGGRGQGWYR	0.651 ± 0.032
GGGGGWAGENTR	0.715 ± 0.075
GGGGLREGGRWE	0.743 ± 0.038
GGGGRVRDALGM	0.696 ± 0.048
GGGGSVGGGALR	0.651 ± 0.0088
GGGLGRVWVKLG	0.716 ± 0.08
GGGLRGVGGLGR	0.602 ± 0.044
GGGMCGRSGGRR	0.706 ± 0.011
GGGRFRRDRTYE	0.712 ± 0.028
GGGRWSAGVVEG	0.829 ± 0.1
GGGSGGVVGGIS	0.674 ± 0.018
GGGSITTFIGDE	0.695 ± 0.018
GGGSRLWGGGRV	0.728 ± 0.028
GGGVATGGGGGG	0.599 ± 0.029
GGGVGGPGGVLK	0.675 ± 0.075
